The series deals with the molecule itself. Nature of the series: cryo-EM structure; FAS (0.3 mg/ml, buffer 100 mM sodium phosphate pH 6.5) incubated with 1 mM NADPH and 1 mM malonyl-CoA for 5 min, on hydrophilized graphene-coated Quantifoil grids; D3 symmetry applied; 3.1 Å.

B1: yeast fatty acid synthase subunit α (FAS2) (enzyme, S. cerevisiae)
chain: MKPEVEQELAHILLTELLAYQFASPVRWIETQDVFLKDFNTERVVEIGPSPTLAGMAQRTLKNKYESYDAALSLHREILCYSKDAKEIYYTPDPSELAAKEEPAKEEAPAPTPAASAPAPAAAAPAPVAAAAPAAAAAEIADEPVKASLLLHVLVAHKLKKSLDSIPMSKTIKDLVGGKSTVQNEILGDLGKEFGTTPEKPEETPLEELAETFQDTFSGALGKQSSSLLSRLISSKMPGGFTITVARKYLQTRWGLPSGRQDGVLLVALSNEPAARLGSEADAKAFLDSMAQKYASIVGVDLSSAASASGAAGAGAAAGAAMIDAGALEEITKDHKVLARQQLQVLARYLKMDLDNGERKFLKEKDTVAELQAQLDYLNAELGEFFVNGVATSFSRKKARTFDSSWNWAKQSLLSLYFEIIHGVLKNVDREVVSEAINIMNRSNDALIKFMEYHISNTDETKGENYQLVKTLGEQLIENCKQVLDVDPVYKDVAKPTGPKTAIDKNGNITYSEEPREKVRKLSQYVQEMALGGPITKESQPTIEEDLTRVYKAISAQADKQDISSSTRVEFEKLYSDLMKFLESSKEIDPSQTTQLAGMDVEDALDKDSTKEVASLPNKSTISKTVSSTIPRETIPFLHLRKKTPAGDWKYDRQLSSLFLDGLEKAAFNGVTFKDKYVLITGAGKGSIGAEVLQGLLQGGAKVVVTTSRFSKQVTDYYQSIYAKYGAKGSTLIVVPFNQGSKQDVEALIEFIYDTEKNGGLGWDLDAIIPFAAIPEQGIELEHIDSKSEFAHRIMLTNILRMMGCVKKQKSARGIETRPAQVILPMSPNHGTFGGDGMYSESKLSLETLFNRWHSESWANQLTVCGAIIGWTRGTGLMSANNIIAEGIEKMGVRTFSQKEMAFNLLGLLTPEVVELCQKSPVMADLNGGLQFVPELKEFTAKLRKELVETSEVRKAVSIETALEHKVVNGNSADAAYAQVEIQPRANIQLDFPELKPYKQVKQIAPAELEGLLDLERVIVVTGFAEVGPWGSARTRWEMEAFGEFSLEGCVEMAWIMGFISYHNGNLKGRPYTGWVDSKTKEPVDDKDVKAKYETSILEHSGIRLIEPELFNGYNPEKKEMIQEVIVEEDLEPFEASKETAEQFKHQHGDKVDIFEIPETGEYSVKLLKGATLYIPKALRFDRLVAGQIPTGWNAKTYGISDDIISQVDPITLFVLVSVVEAFIASGITDPYEMYKYVHVSEVGNCSGSGMGGVSALRGMFKDRFKDEPVQNDILQESFINTMSAWVNMLLISSSGPIKTPVGACATSVESVDIGVETILSGKARICIVGGYDDFQEEGSFEFGNMKATSNTLEEFEHGRTPAEMSRPATTTRNGFMEAQGAGIQIIMQADLALKMGVPIYGIVAMAATATDKIGRSVPAPGKGILTTAREHHSSVKYASPNLNMKYRKRQLVTREAQIKDWVENELEALKLEAEEIPSEDQNEFLLERTREIHNEAESQLRAAQQQWGNDFYKRDPRIAPLRGALATYGLTIDDLGVASFHGTSTKANDKNESATINEMMKHLGRSEGNPVIGVFQKFLTGHPKGAAGAWMMNGALQILNSGIIPGNRNADNVDKILEQFEYVLYPSKTLKTDGVRAVSITSFGFGQKGGQAIVVHPDYLYGAITEDRYNEYVAKVSAREKSAYKFFHNGMIYNKLFVSKEHAPYTDELEEDVYLDPLARVSKDKKSGSLTFNSKNIQSKDSYINANTIETAKMIENMTKEKVSNGGVGVDVELITSINVENDTFIERNFTPQEIEYCSAQPSVQSSFAGTWSAKEAVFKSLGVKSLGGGAALKDIEIVRVNKNAPAVELHGNAKKAAEEAGVTDVKVSISHDDLQAVAVAVSTKK
modifications: additional density at Ser1440 suggesting phosphorylation
notes: fatty acid synthase subunit α, S. cerevisiae, encoded by FAS2 on a pRS shuttle vector; holds the PPT domain at its C-terminus; this follows from DM4 holding the PPT domain, which it places in subunit α
Take B1: the binding result is “binds”.

The values above are taken from paper PMC7055384, “The resolution revolution in cryoEM requires high-quality sample preparation: a rapid pipeline to a high-resolution map of yeast fatty acid synthase” (IUCrJ, 2020).
